Experiments:
Assay type in all cases: cell-based, mouse
Conditions in all cases: accessory protein co-transfected in 293T cells
OREG = experiment: Living-cell staining of cell-surface OREG
Method: The proteins encoded by these clones were named REEP1, for Receptor Expression Enhancing Protein 1 and RTP1, for Receptor Transporting Protein 1. Subsequently, RTP2 was found, a close relative of RTP1. […] Next, REEP1, RTP1, and RTP2 were tested to detect a similar effect in promoting cell-surface expression of other ORs. Four different ORs (mouse OREG, mouse olfr62, mouse OR-S46 and rat I7) were expressed in 293T cells with or without REEP1, RTP1, or RTP2. […] Additionally, ORs transfected with REEP and/or RTP generated more immunofluorescent cells and stronger signals in positive cells compared with ORs without REEP and/or RTP (see FIG. 2A). The signal intensity and the number of immunopositive cells varied when using different ORs at each condition. […] Nonetheless, occasional immunopositive cells were observed only when the accessory proteins were co-expressed. The effects of RTP1 or RTP2 were consistently more robust than that of REEP1. […]

olfr62 = experiment: Living-cell staining of cell-surface olfr62
Method: The proteins encoded by these clones were named REEP1, for Receptor Expression Enhancing Protein 1 and RTP1, for Receptor Transporting Protein 1. Subsequently, RTP2 was found, a close relative of RTP1. […] Next, REEP1, RTP1, and RTP2 were tested to detect a similar effect in promoting cell-surface expression of other ORs. Four different ORs (mouse OREG, mouse olfr62, mouse OR-S46 and rat I7) were expressed in 293T cells with or without REEP1, RTP1, or RTP2. […] Additionally, ORs transfected with REEP and/or RTP generated more immunofluorescent cells and stronger signals in positive cells compared with ORs without REEP and/or RTP (see FIG. 2A). The signal intensity and the number of immunopositive cells varied when using different ORs at each condition. […] Nonetheless, occasional immunopositive cells were observed only when the accessory proteins were co-expressed. The effects of RTP1 or RTP2 were consistently more robust than that of REEP1. The enhancement of cell-surface expression was specific for ORs and not for other GPCRs: neither REEP and/or RTP enhanced expression of the β2 adrenergic receptor, mT2R5 (a mouse bitter taste receptor) (see, e.g., Chandrashekar, J., et al. (2000) Cell 100, 703-711; herein incorporated by reference in its entirety), or a V2R pheromone receptor (VR4) (see, e.g., Matsunami, H., and Buck, L. B. (1997) Cell 90, 775-784; herein incorporated by reference in its entirety) (see FIG. 2A and FIG. 3). Finally, enhancement of cell-surface expression of MOR203-1 was not observed when other members of the REEP and RTP families (REEP2 and RTP4) were co-expressed.
(§1) 293T cells were maintained in minimal essential medium containing 10% fetal bovine serum (M10). Lipofectamine 2000 (Invitrogen) was used for transfection. In live-cell staining, 16 hours after transfection, cells were incubated in M10 containing anti rhodopsin antibody, 4D2 (see, e.g., Laird, D. W., and Molday, R. S. (1988) Invest Opthalmol V is Sci 29, 419-428; herein incorporated by reference in its entirety) and 15 mM NaN3 at 4 degrees C. for 1 hour. After washing, cells were incubated with Cy3-conjugated anti mouse IgG (Jackson Immunologicals), washed and mounted. For FACS analysis, 4D2 and PE-conjugated anti mouse IgG (Jackson Immunologicals) were used to monitor the Rho tagged receptor expression. Anti HA rabbit antibodies (Sigma) and Alexa 488 conjugated anti rabbit IgG (Molecular Probes) was used to stain the HA-β2 adrenergic receptor. To establish the Hana3a cells, 1 ug/ml of puromycin was used for selection. 96 colonies were picked and assayed using luciferase assay using OREG.

MOR203-1 = experiment: Living-cell staining of cell-surface MOR203-1
Description: After hypothesizing that mammalian ORs require accessory protein(s) for functional cell surface expression, a search was instituted for detecting such molecule(s). Long-SAGE (serial analysis of gene expression) libraries (see, e.g., Saha, S., et al., (2002) Nat Biotechnol 20, 508-512; herein incorporated by reference in its entirety) were constructed from single olfactory neurons as well as neurons from the vomeronasal organ and genes were collected that are expressed by these neurons. To identify candidate genes expressed by the olfactory neurons Digital Differential Display (see, e.g., http://www, followed by, .ncbi.nlm.nih.gov/UniGene/info_ddd.shtml) was also used. Candidate genes were investigated for ORFs that encode membrane associated proteins. Genes were selected with similarities to known chaperones and cloned the cDNAs from olfactory epithelium cDNAs. The mRNA expression of each gene was verified by in situ hybridization. After isolating and subcloning into mammalian expression vectors, each cDNA together with a mouse OR (MOR203-1) tagged with a 20 N-terminal amino acids of rhodopsin (Rho-tag), was transfected into 293T cells. We measured whether these clones had any effect on the cell-surface expression of ORs by staining living cells using antibodies against the Rho-tag (see, e.g., Laird, D. W., and Molday, R. S. (1988) Invest Opthalmol Vis Sci 29, 419-428; herein incorporated by reference in its entirety). When MOR203-1 was transfected alone, antibody staining detected only faint cell-surface expression in less than 1% of the cells. A schematic diagram outlining the screening procedure utilized with the present invention is provided at FIG. 1.
as §1

B1: RTP1-A1: RTP1 variant from deleting portions of RTP1-A; murine SEQ ID NO: 46, human SEQ ID NO: 47 (protein, listed as Mus musculus)
chain: MCKSVTTGEWKKVFYEKMEEVKPADSWDFIIDPNLKHNVLAPGWKQYLELHASGRFHCSWCWHTWQSPHVVILFHMYLDKAQRAGSVRMRVFKQLCYECGTARLDESSMLEENIESLVDNLITSLREQCYGERGGHYRIHVASRQDNRRHRGEFCEACQEGIVHWKPSEKLLEEEATTYTFSRAPSPTKPQAETGSGCNFCSIPWCLFWATVLMLIIYLQFSFRTSV
Increased cell-surface staining: cell-surface expression of OREG (OREG) | cell-surface expression of olfr62 (olfr62) | cell surface expression of MOR203-1 (MOR203-1)
